Measurements from patent US11541126B1, “Anti-ASGR1 antibody TLR8 agonist comprising conjugates and uses thereof” (Silverback Therapeutics, Inc., priority 2020, dated 2023).

T1: HepG2 cells (which express ASGR1) (Homo sapiens, UniProt P07306)
T1 construct: endogenous in cells; host or cells: HepG2
T1 sequence (P07306 1-291): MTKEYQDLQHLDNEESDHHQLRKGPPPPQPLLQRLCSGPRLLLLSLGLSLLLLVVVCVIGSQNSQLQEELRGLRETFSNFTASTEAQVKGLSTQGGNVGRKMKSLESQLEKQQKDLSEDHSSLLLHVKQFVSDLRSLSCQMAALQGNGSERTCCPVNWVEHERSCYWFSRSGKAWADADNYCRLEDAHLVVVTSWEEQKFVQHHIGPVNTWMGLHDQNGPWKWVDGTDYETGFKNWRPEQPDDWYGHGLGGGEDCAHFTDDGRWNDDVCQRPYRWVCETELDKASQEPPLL


molecular target: T1, HepG2 cells (which express ASGR1); test: Guava HepG2 cell binding screen of humanized anti-ASGR1 clones; parameters: unit not given here; conditions: humanized G2D clones (Table 5); two numbers per cell, not explained
Procedure: Hybridomas producing monoclonal antibodies (mAbs) specific for human ASGR1 were prepared from Balb/C mice immunized with ASGR1-AviHis at a service provider using their propriety protocol. Antibody heavy and light chain sequences were obtained, amplified, and cloned. Clone supernatants containing the expressed mAbs were screened for binding to a human ASGR1-IgG1Fc fusion protein, and those with a positive signal as measured by enzyme linked immunosorbent assay (ELISA) were screened for cell binding on HepG2 cells (which express ASGR1).

Guava HepG2 Screen | Molecule
None | hzG2D-24: humanized G2D clone; "G2D VL region ... of clones 24 and 25 ... grafted into the human germline sequence VKI-A20 with JK4 to generate hzG2D VLc (SEQ ID NO:249)" (antibody, V domains shown, Synthetic sequence hzG2.46D VH R66K, V67A, T68S, I69L, R71V; Synthetic sequence hzG2D VLc) VH: QVQLVQSGAEVKKPGASVKVSCKASGYTFTGYYMHWVRQAPGQRLEWMGRINPNNGATNYNQNFKDKASLTVDTSASTAYMELSSLRSEDTAVYYCARVNFYYWGQGTTVTVSS VL: DIQMTQSPSSLSASVGDRVTITCKASQVINSYLSWYQQKPGKVPKLLIYRANTLVDGVPSRFSGSGSGTDFTLTISSLQPEDVATYYCLQYAEFPYTFGGGTKVEIK
191/116 | hzG2D-27: humanized G2D clone; "G2D VL region ... of clones 1-16, 19-21, 26-29, 31, and 33 ... grafted into the human germline sequence VKI-L1 with JK4" (antibody, V domains shown, Synthetic sequence hzG2.47D VH R66K, V67A, T68S, I69L, R71V, A93T, R94S; Synthetic sequence hzG2.4D VLa Q79E, P80Y) VH: QVQLVQSGAEVKKPGASVKVSCKASGYTFTGYYMHWVRQAPGQRLEWMGRINPNNGATNYNQNFKDKASLTVDTSASTAYMELSSLRSEDTAVYYCTSVNFYYWGQGTTVTVSS VL: DIQMTQSPSSLSASVGDRVTITCKASQVINSYLSWFQQKPGKAPKSLIYRANTLVDGVPSRFSGSGSGTDFTLTISSLEYEDFATYYCLQYAEFPYTFGGGTKVEIK
None | hzG2D-22: humanized G2D clone; "G2D VL region ... of clones 22, 23, 30, 32, and 34-37 ... grafted into the human germline sequence VKI-O2 with JK4" (antibody, V domains shown, Synthetic sequence hzG2.46D VH R66K, V67A, T68S, I69L, R71V; Synthetic sequence hzG2D VLb) VH: QVQLVQSGAEVKKPGASVKVSCKASGYTFTGYYMHWVRQAPGQRLEWMGRINPNNGATNYNQNFKDKASLTVDTSASTAYMELSSLRSEDTAVYYCARVNFYYWGQGTTVTVSS VL: DIQMTQSPSSLSASVGDRVTITCKASQVINSYLSWYQQKPGKAPKLLIYRANTLVDGVPSRFSGSGSGTDFTLTISSLQPEDFATYYCLQYAEFPYTFGGGTKVEIK
199/127 | hzG2D-21: humanized G2D clone; "G2D VL region ... of clones 1-16, 19-21, 26-29, 31, and 33 ... grafted into the human germline sequence VKI-L1 with JK4" (antibody, V domains shown, Synthetic sequence hzG2.47D VH R66K, V67A, T68S, I69L, R71V, A93T, R94S; Synthetic sequence hzG2D VLa) VH: QVQLVQSGAEVKKPGASVKVSCKASGYTFTGYYMHWVRQAPGQRLEWMGRINPNNGATNYNQNFKDKASLTVDTSASTAYMELSSLRSEDTAVYYCTSVNFYYWGQGTTVTVSS VL: DIQMTQSPSSLSASVGDRVTITCKASQVINSYLSWFQQKPGKAPKSLIYRANTLVDGVPSRFSGSGSGTDFTLTISSLQPEDFATYYCLQYAEFPYTFGGGTKVEIK
198/131 | hzG2D-23: humanized G2D clone; "G2D VL region ... of clones 22, 23, 30, 32, and 34-37 ... grafted into the human germline sequence VKI-O2 with JK4" (antibody, V domains shown, Synthetic sequence hzG2.47D VH R66K, V67A, T68S, I69L, R71V, A93T, R94S; Synthetic sequence hzG2D VLb) VH: QVQLVQSGAEVKKPGASVKVSCKASGYTFTGYYMHWVRQAPGQRLEWMGRINPNNGATNYNQNFKDKASLTVDTSASTAYMELSSLRSEDTAVYYCTSVNFYYWGQGTTVTVSS VL: DIQMTQSPSSLSASVGDRVTITCKASQVINSYLSWYQQKPGKAPKLLIYRANTLVDGVPSRFSGSGSGTDFTLTISSLQPEDFATYYCLQYAEFPYTFGGGTKVEIK

The next lines start with the molecule.

Molecule | Guava HepG2 Screen
hzG2D-16: humanized G2D clone; "G2D VL region ... of clones 1-16, 19-21, 26-29, 31, and 33 ... grafted into the human germline sequence VKI-L1 with JK4" (antibody, V domains shown, Synthetic sequence hzG2.5D VH T28S, R66K, V67A, T68S, I69L, R71V, A93T, R94S, V109L; Synthetic sequence hzG2D VLa) VH: QVQLVQSGAEVKKPGASVKVSCKASGYSFTGYYMHWVRQAPGQRLEWMGRINPNNGATNYNQNFKDKASLTVDTSASTAYMELSSLRSEDTAVYYCTSVNFYYWGQGTTLTVSS VL: DIQMTQSPSSLSASVGDRVTITCKASQVINSYLSWFQQKPGKAPKSLIYRANTLVDGVPSRFSGSGSGTDFTLTISSLQPEDFATYYCLQYAEFPYTFGGGTKVEIK | 165/108
hzG2D-26: humanized G2D clone; "G2D VL region ... of clones 1-16, 19-21, 26-29, 31, and 33 ... grafted into the human germline sequence VKI-L1 with JK4" (antibody, V domains shown, Synthetic sequence hzG2.47D VH R66K, V67A, T68S, I69L, R71V, A93T, R94S; Synthetic sequence hzG2.3D VLa K45E, S46T) VH: QVQLVQSGAEVKKPGASVKVSCKASGYTFTGYYMHWVRQAPGQRLEWMGRINPNNGATNYNQNFKDKASLTVDTSASTAYMELSSLRSEDTAVYYCTSVNFYYWGQGTTVTVSS VL: DIQMTQSPSSLSASVGDRVTITCKASQVINSYLSWFQQKPGKAPETLIYRANTLVDGVPSRFSGSGSGTDFTLTISSLQPEDFATYYCLQYAEFPYTFGGGTKVEIK | 185/114
hzG2D-28: humanized G2D clone; "G2D VL region ... of clones 1-16, 19-21, 26-29, 31, and 33 ... grafted into the human germline sequence VKI-L1 with JK4" (antibody, V domains shown, Synthetic sequence hzG2.47D VH R66K, V67A, T68S, I69L, R71V, A93T, R94S; Synthetic sequence hzG2.5D VLa F71Y, T72S) VH: QVQLVQSGAEVKKPGASVKVSCKASGYTFTGYYMHWVRQAPGQRLEWMGRINPNNGATNYNQNFKDKASLTVDTSASTAYMELSSLRSEDTAVYYCTSVNFYYWGQGTTVTVSS VL: DIQMTQSPSSLSASVGDRVTITCKASQVINSYLSWFQQKPGKAPKSLIYRANTLVDGVPSRFSGSGSGTDYSLTISSLQPEDFATYYCLQYAEFPYTFGGGTKVEIK | 145/92
hzG2D-29: humanized G2D clone; "G2D VL region ... of clones 1-16, 19-21, 26-29, 31, and 33 ... grafted into the human germline sequence VKI-L1 with JK4" (antibody, V domains shown, Synthetic sequence hzG2.49D VH R38K, R66K, V67A, T68S, I69L, R71V, A93T, R94S; Synthetic sequence hzG2D VLa) VH: QVQLVQSGAEVKKPGASVKVSCKASGYTFTGYYMHWVKQAPGQRLEWMGRINPNNGATNYNQNFKDKASLTVDTSASTAYMELSSLRSEDTAVYYCTSVNFYYWGQGTTVTVSS VL: DIQMTQSPSSLSASVGDRVTITCKASQVINSYLSWFQQKPGKAPKSLIYRANTLVDGVPSRFSGSGSGTDFTLTISSLQPEDFATYYCLQYAEFPYTFGGGTKVEIK | 189/108
hzG2D-25: humanized G2D clone; "G2D VL region ... of clones 24 and 25 ... grafted into the human germline sequence VKI-A20 with JK4 to generate hzG2D VLc (SEQ ID NO:249)" (antibody, V domains shown, Synthetic sequence hzG2.47D VH R66K, V67A, T68S, I69L, R71V, A93T, R94S; Synthetic sequence hzG2D VLc) VH: QVQLVQSGAEVKKPGASVKVSCKASGYTFTGYYMHWVRQAPGQRLEWMGRINPNNGATNYNQNFKDKASLTVDTSASTAYMELSSLRSEDTAVYYCTSVNFYYWGQGTTVTVSS VL: DIQMTQSPSSLSASVGDRVTITCKASQVINSYLSWYQQKPGKVPKLLIYRANTLVDGVPSRFSGSGSGTDFTLTISSLQPEDVATYYCLQYAEFPYTFGGGTKVEIK | None
G2D-C (antibody, V domains shown, IgG1 kappa constant regions; Synthetic sequence G2D VH; Synthetic sequence G2D VL) VH: EVQLQQSGPELVKPGASVKISCKASGYSFTGYYMHWVKQSHVKSLEWIGRINPNNGATNYNQNFKDKASLTVDKSSSTAYMEFHSLTSEDSAVYYCTSVNFYYWGQGTTLTVSS VL: DIKMTQSPSSMYASLGERVTITCKASQVINSYLSWFQQKPGKSPETLIYRANTLVDGVPSRFSGSGSGQDYSLTISSLEYEDLGIYYCLQYAEFPYTFGGGTKLEIK | 187/145
